Results published in patent US20110318377.

Legend:
[1] = test system: full-length synthetic Tat protein (72 amino acids), unmodified
[2] = test system: histones purified from calf thymus

recombinant G9a (Upstate)
in vitro methylation with radiolabeled SAM, autoradiography [1]: Incubation with the lysine methyltransferase G9a did not result in methylation of Tat | in vitro methylation with radiolabeled SAM, autoradiography [2]: led to the successful methylation of histones as expected
